Measurements from paper PMC10786891, “Massively parallel profiling of RNA-targeting CRISPR-Cas13d”.

Molecular target: T1, EsCas13d, nuclease-dead (Eubacterium siraeum, UniProt B0MS50, R295A;H300A;R849A;H854A)
T1 sequence: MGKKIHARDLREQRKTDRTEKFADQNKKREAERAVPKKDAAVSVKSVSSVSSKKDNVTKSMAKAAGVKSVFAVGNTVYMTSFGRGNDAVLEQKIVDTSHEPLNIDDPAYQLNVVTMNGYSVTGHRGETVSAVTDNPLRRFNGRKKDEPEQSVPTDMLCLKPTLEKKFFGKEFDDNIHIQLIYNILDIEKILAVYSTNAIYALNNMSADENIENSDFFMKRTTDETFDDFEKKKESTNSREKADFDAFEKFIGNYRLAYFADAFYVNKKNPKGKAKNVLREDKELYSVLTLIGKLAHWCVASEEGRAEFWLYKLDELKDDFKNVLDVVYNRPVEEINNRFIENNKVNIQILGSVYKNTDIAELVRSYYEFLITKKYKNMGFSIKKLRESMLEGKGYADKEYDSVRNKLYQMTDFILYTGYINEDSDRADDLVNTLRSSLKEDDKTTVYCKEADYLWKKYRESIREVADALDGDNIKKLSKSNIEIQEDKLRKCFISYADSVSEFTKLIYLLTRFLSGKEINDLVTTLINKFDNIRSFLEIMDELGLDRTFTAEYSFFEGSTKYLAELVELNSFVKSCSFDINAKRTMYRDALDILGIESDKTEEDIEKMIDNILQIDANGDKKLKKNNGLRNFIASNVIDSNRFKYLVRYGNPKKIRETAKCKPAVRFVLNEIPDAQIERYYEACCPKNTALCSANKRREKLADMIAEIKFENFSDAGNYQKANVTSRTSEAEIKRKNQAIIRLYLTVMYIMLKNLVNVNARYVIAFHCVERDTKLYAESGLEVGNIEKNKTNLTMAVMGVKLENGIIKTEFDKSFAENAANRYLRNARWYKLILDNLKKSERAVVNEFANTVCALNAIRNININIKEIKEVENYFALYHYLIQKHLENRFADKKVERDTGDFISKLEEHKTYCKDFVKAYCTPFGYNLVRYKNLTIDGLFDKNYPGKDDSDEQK
Test: crRNA (strand 1, pre-loaded); Mg2+; 40 mM Tris-HCl pH 7.5, 150 mM NaCl, 6 mM MgCl2, 1 mM DTT, 0.1% Tween-20, 0.2 mg/ml BSA; 25 C; 10 min per concentration, then washed
Conditions: tags: His6-TwinStrep-SUMO cleaved; N-terminal SNAP kept (SNAP-Surface 488); label: 3' end held by stalled T7 RNA polymerase

B1: target 1 insG 3' of 1,insC 3' of 1 (mixed)
RNA 1: CACCCGUGCAAAAAUGCAGGGGUCUAAAACUGAGCGGAUAACCUCUCUAUGG
RNA 2: GGGAAUGGAUCCACAUCUACGAAUUCGUACCAUAGAGAGGUUAUCCGCUCAGCCCGAGAUCGGAAGAGCACACGU
Kd: 11 ± 1.4 nM

B2: target 1 insG 3' of 22,insU 3' of 12 (mixed)
RNA 1: CACCCGUGCAAAAAUGCAGGGGUCUAAAACUGAGCGGAUAACCUCUCUAUGG
RNA 2: GGGAAUGGAUCCACAUCUACGAAUUCGUACGCAUAGAGAGGUUUAUCCGCUCACCGAGAUCGGAAGAGCACACGU
Kd: 20.5 ± 1.8 nM

B3: target 1 insG 3' of 1,insG 3' of 1 (mixed)
RNA 1: CACCCGUGCAAAAAUGCAGGGGUCUAAAACUGAGCGGAUAACCUCUCUAUGG
RNA 2: GGGAAUGGAUCCACAUCUACGAAUUCGUACCAUAGAGAGGUUAUCCGCUCAGGCCGAGAUCGGAAGAGCACACGU
Kd: 8.6 ± 0.5 nM

B4: target 2 MT 5'PFS UCG 3'PFS CAU (mixed)
RNA 1: CACCCGUGCAAAAUUGCAGGGGUCUAAAACCUUCUCCAAAUUGUUUCAUCCU
RNA 2: GGGAAUGGAUCCACAUCUACGAAUUCUCGAGGAUGAAACAAUUUGGAGAAGCAUAGAUCGGAAGAGCACACGU
Kd: ~30 nM

B5: target 2 MT 5'PFS UCA 3'PFS AUU (mixed)
RNA 1: CACCCGUGCAAAAUUGCAGGGGUCUAAAACCUUCUCCAAAUUGUUUCAUCCU
RNA 2: GGGAAUGGAUCCACAUCUACGAAUUCUCAAGGAUGAAACAAUUUGGAGAAGAUUAGAUCGGAAGAGCACACGU
Kd: 4.4 ± 0.5 nM

B6: target 2 MT 5'PFS GCG 3'PFS CAU (mixed)
RNA 1: CACCCGUGCAAAAUUGCAGGGGUCUAAAACCUUCUCCAAAUUGUUUCAUCCU
RNA 2: GGGAAUGGAUCCACAUCUACGAAUUCGCGAGGAUGAAACAAUUUGGAGAAGCAUAGAUCGGAAGAGCACACGU
Kd: 13 ± 4 nM

B7: target 2 MT 5'PFS UCA 3'PFS AUG (mixed)
RNA 1: CACCCGUGCAAAAUUGCAGGGGUCUAAAACCUUCUCCAAAUUGUUUCAUCCU
RNA 2: GGGAAUGGAUCCACAUCUACGAAUUCUCAAGGAUGAAACAAUUUGGAGAAGAUGAGAUCGGAAGAGCACACGU
Kd: 4 ± 1 nM

B8: target 2 MT 5'PFS UAU 3'PFS CUC (mixed)
RNA 1: CACCCGUGCAAAAUUGCAGGGGUCUAAAACCUUCUCCAAAUUGUUUCAUCCU
RNA 2: GGGAAUGGAUCCACAUCUACGAAUUCUAUAGGAUGAAACAAUUUGGAGAAGCUCAGAUCGGAAGAGCACACGU
Kd: 38 ± 7 nM

B9: target 2 MT 5'PFS UGU 3'PFS CCG (mixed)
RNA 1: CACCCGUGCAAAAUUGCAGGGGUCUAAAACCUUCUCCAAAUUGUUUCAUCCU
RNA 2: GGGAAUGGAUCCACAUCUACGAAUUCUGUAGGAUGAAACAAUUUGGAGAAGCCGAGAUCGGAAGAGCACACGU
Kd: 12.6 ± 1.4 nM

B10: target 2 MT 5'PFS GUA 3'PFS CGC (mixed)
RNA 1: CACCCGUGCAAAAUUGCAGGGGUCUAAAACCUUCUCCAAAUUGUUUCAUCCU
RNA 2: GGGAAUGGAUCCACAUCUACGAAUUCGUAAGGAUGAAACAAUUUGGAGAAGCGCAGAUCGGAAGAGCACACGU
Kd: 7.4 ± 0.5 nM

B11: target 2 MT 5'PFS AAA 3'PFS AAG (mixed)
RNA 1: CACCCGUGCAAAAUUGCAGGGGUCUAAAACCUUCUCCAAAUUGUUUCAUCCU
RNA 2: GGGAAUGGAUCCACAUCUACGAAUUCAAAAGGAUGAAACAAUUUGGAGAAGAAGAGAUCGGAAGAGCACACGU
Kd: 4 ± 0.5 nM

B12: target 2 MT 5'PFS UAU 3'PFS CUA (mixed)
RNA 1: CACCCGUGCAAAAUUGCAGGGGUCUAAAACCUUCUCCAAAUUGUUUCAUCCU
RNA 2: GGGAAUGGAUCCACAUCUACGAAUUCUAUAGGAUGAAACAAUUUGGAGAAGCUAAGAUCGGAAGAGCACACGU
Kd: 22.7 ± 2.8 nM

B13: target 2 MT 5'PFS GUA 3'PFS CGA (mixed)
RNA 1: CACCCGUGCAAAAUUGCAGGGGUCUAAAACCUUCUCCAAAUUGUUUCAUCCU
RNA 2: GGGAAUGGAUCCACAUCUACGAAUUCGUAAGGAUGAAACAAUUUGGAGAAGCGAAGAUCGGAAGAGCACACGU
Kd: 6.4 ± 0.5 nM

B14: target 2 MT 5'PFS UCA 3'PFS AUC (mixed)
RNA 1: CACCCGUGCAAAAUUGCAGGGGUCUAAAACCUUCUCCAAAUUGUUUCAUCCU
RNA 2: GGGAAUGGAUCCACAUCUACGAAUUCUCAAGGAUGAAACAAUUUGGAGAAGAUCAGAUCGGAAGAGCACACGU
Kd: 3.6 ± 0.6 nM

B15: target 2 MT 5'PFS GAG 3'PFS UAG (mixed)
RNA 1: CACCCGUGCAAAAUUGCAGGGGUCUAAAACCUUCUCCAAAUUGUUUCAUCCU
RNA 2: GGGAAUGGAUCCACAUCUACGAAUUCGAGAGGAUGAAACAAUUUGGAGAAGUAGAGAUCGGAAGAGCACACGU
Kd: 6.2 ± 0.7 nM

B16: target 2 MT 5'PFS GAG 3'PFS UAU (mixed)
RNA 1: CACCCGUGCAAAAUUGCAGGGGUCUAAAACCUUCUCCAAAUUGUUUCAUCCU
RNA 2: GGGAAUGGAUCCACAUCUACGAAUUCGAGAGGAUGAAACAAUUUGGAGAAGUAUAGAUCGGAAGAGCACACGU
Kd: 5.6 ± 0.5 nM

B17: target 2 MT 5'PFS UCA 3'PFS AUA (mixed)
RNA 1: CACCCGUGCAAAAUUGCAGGGGUCUAAAACCUUCUCCAAAUUGUUUCAUCCU
RNA 2: GGGAAUGGAUCCACAUCUACGAAUUCUCAAGGAUGAAACAAUUUGGAGAAGAUAAGAUCGGAAGAGCACACGU
Kd: 6.2 ± 2 nM

B18: target 2 MT 5'PFS GCG 3'PFS CAC (mixed)
RNA 1: CACCCGUGCAAAAUUGCAGGGGUCUAAAACCUUCUCCAAAUUGUUUCAUCCU
RNA 2: GGGAAUGGAUCCACAUCUACGAAUUCGCGAGGAUGAAACAAUUUGGAGAAGCACAGAUCGGAAGAGCACACGU
Kd: 10.4 ± 1.3 nM

B19: target 2 MT 5'PFS GUU 3'PFS CAU (mixed)
RNA 1: CACCCGUGCAAAAUUGCAGGGGUCUAAAACCUUCUCCAAAUUGUUUCAUCCU
RNA 2: GGGAAUGGAUCCACAUCUACGAAUUCGUUAGGAUGAAACAAUUUGGAGAAGCAUAGAUCGGAAGAGCACACGU
Kd: 14.2 ± 1.9 nM

B20: target 2 MT 5'PFS GAU 3'PFS AGC (mixed)
RNA 1: CACCCGUGCAAAAUUGCAGGGGUCUAAAACCUUCUCCAAAUUGUUUCAUCCU
RNA 2: GGGAAUGGAUCCACAUCUACGAAUUCGAUAGGAUGAAACAAUUUGGAGAAGAGCAGAUCGGAAGAGCACACGU
Kd: 7.1 ± 0.6 nM

B21: target 2 MT 5'PFS GAA 3'PFS CCA (mixed)
RNA 1: CACCCGUGCAAAAUUGCAGGGGUCUAAAACCUUCUCCAAAUUGUUUCAUCCU
RNA 2: GGGAAUGGAUCCACAUCUACGAAUUCGAAAGGAUGAAACAAUUUGGAGAAGCCAAGAUCGGAAGAGCACACGU
Kd: 25 ± 6 nM

B22: target 2 MT 5'PFS GUU 3'PFS CAG (mixed)
RNA 1: CACCCGUGCAAAAUUGCAGGGGUCUAAAACCUUCUCCAAAUUGUUUCAUCCU
RNA 2: GGGAAUGGAUCCACAUCUACGAAUUCGUUAGGAUGAAACAAUUUGGAGAAGCAGAGAUCGGAAGAGCACACGU
Kd: 10.9 ± 0.9 nM

B23: target 2 MT 5'PFS UAU 3'PFS CUU (mixed)
RNA 1: CACCCGUGCAAAAUUGCAGGGGUCUAAAACCUUCUCCAAAUUGUUUCAUCCU
RNA 2: GGGAAUGGAUCCACAUCUACGAAUUCUAUAGGAUGAAACAAUUUGGAGAAGCUUAGAUCGGAAGAGCACACGU
Kd: 54 ± 14 nM

B24: target 2 MT 5'PFS GGC 3'PFS UUU (mixed)
RNA 1: CACCCGUGCAAAAUUGCAGGGGUCUAAAACCUUCUCCAAAUUGUUUCAUCCU
RNA 2: GGGAAUGGAUCCACAUCUACGAAUUCGGCAGGAUGAAACAAUUUGGAGAAGUUUAGAUCGGAAGAGCACACGU
Kd: 27 ± 5 nM

B25: target 2 MT 5'PFS GUU 3'PFS CAA (mixed)
RNA 1: CACCCGUGCAAAAUUGCAGGGGUCUAAAACCUUCUCCAAAUUGUUUCAUCCU
RNA 2: GGGAAUGGAUCCACAUCUACGAAUUCGUUAGGAUGAAACAAUUUGGAGAAGCAAAGAUCGGAAGAGCACACGU
Kd: 6.6 ± 0.7 nM

B26: target 2 MT 5'PFS GAA 3'PFS CCG (mixed)
RNA 1: CACCCGUGCAAAAUUGCAGGGGUCUAAAACCUUCUCCAAAUUGUUUCAUCCU
RNA 2: GGGAAUGGAUCCACAUCUACGAAUUCGAAAGGAUGAAACAAUUUGGAGAAGCCGAGAUCGGAAGAGCACACGU
Kd: 10.5 ± 1.2 nM

B27: target 2 MT 5'PFS GUU 3'PFS CAC (mixed)
RNA 1: CACCCGUGCAAAAUUGCAGGGGUCUAAAACCUUCUCCAAAUUGUUUCAUCCU
RNA 2: GGGAAUGGAUCCACAUCUACGAAUUCGUUAGGAUGAAACAAUUUGGAGAAGCACAGAUCGGAAGAGCACACGU
Kd: 15.3 ± 2.3 nM

B28: target 2 MT 5'PFS UAU 3'PFS CUG (mixed)
RNA 1: CACCCGUGCAAAAUUGCAGGGGUCUAAAACCUUCUCCAAAUUGUUUCAUCCU
RNA 2: GGGAAUGGAUCCACAUCUACGAAUUCUAUAGGAUGAAACAAUUUGGAGAAGCUGAGAUCGGAAGAGCACACGU
Kd: 17.4 ± 1.9 nM
